Test results from patent US20110044985A1 (RINAT NEUROSCIENCE, published 2011).
Residue numbers refer to the chain shown, from its start. Names and notes keep the numbering of the source. Blank lines part the entries; values can stand above or below the binder they belong to. No end group written: not given here.

Tests used:
[1] = biological target: T1, Biotinylated Aβ peptide with amino acids 24-33 and a glycine at the C-terminus (also: biotinylated (position not given here)); test: ELISA, biotinylated peptide on streptavidin-coated plate, goat anti-human kappa HRP
T1 peptide: VGSNKGAIIGG
Method: (§1) Various Aβ peptides (assigned SEQ ID NO:18-26, 31, and 27-29 from top to bottom sequences) were immobilized on ELISA plates. Antibodies were incubated for 1 hour with various immobilized peptides. Antibody 6G bound to immobilized Aβ peptides were measured using goat anti-human kappa HRP conjugated secondary antibody. […] “NB” refers to no binding detected.
(§2) ELISA was used for measuring binding of antibody 6G and variants to biotinylated Aβ peptides. NUNC maxisorp plates were coated with 6 ug/ml of streptavidin (Pierce, 21122) in PBS pH 7.4 for more than 1 h at 4° C. Plates were blocked with 1% BSA in PBS buffer pH 7.4. After washing, biotinylated Aβ peptides in PBS pH 7.4 were incubated 1 hour at room temperature. Primary antibody (from cell supernatants, serum containing anti-Aβ antibody, or purified full antibody or Fabs at desired dilution) was incubated with the immobilized Aβ peptides for 1 h at room temperature. After washing, plates were incubated with secondary antibody, a HRP conjugated goat anti-human kappa chain antibody (MP Biomedicals, 55233) at 1:5000 dilution. After washing, bound secondary antibody was measured by adding TMB substrate (KPL, 50-76-02, 50-65-02). HRP reaction was stopped by adding 1M phosphoric acid and absorbance at 450 nm was measured.

[2] = biological target: T2, Biotinylated Aβ peptide with amino acids 26-40 and a glycine at the C-terminus (also: biotinylated (position not given here)); test: as above
T2 peptide: SNKGAIIGLMVGGVVG
Method: as §1, §2

[3] = biological target: T3, Biotinylated Aβ peptide with amino acids 27-41 and a glycine at the C-terminus (also: biotinylated (position not given here)); test: as above
T3 peptide: NKGAIIGLMVGGVVIG
Method: as §1, §2

[4] = biological target: T4, Biotinylated Aβ peptide with amino acids 26-35 and a glycine at the C-terminus (also: biotinylated (position not given here)); test: as above
T4 peptide: SNKGAIIGLMG
Method: as §1, §2

[5] = biological target: T5, Biotinylated Aβ peptide with amino acids 19-33 and a glycine at the C-terminus (also: biotinylated (position not given here)); test: as above
T5 peptide: FFAEDVGSNKGAIIGG
Method: as §1, §2

28 KGAIIGLMVGGVVIAG = biological target: T6, 28 KGAIIGLMVGGVVIAG (also: biotinylated (position not given here)); test: as above
T6 construct: It differs from m21 (Aβ peptide 28-42, not biotinylated, no added glycine); also called Biotinylated Aβ peptide with amino acids 28-42 and a glycine at the C-terminus; 28-42 15-mer
T6 peptide: KGAIIGLMVGGVVIAG
Method: as §1, §2

Aβ1-40 = biological target: T7, Aβ1-40; test: ELISA, nonbiotinylated peptide on plate
T7 construct: also called 1-40 (WT); Aβ peptide 1-40
T7 sequence (peptide, as listed by the source): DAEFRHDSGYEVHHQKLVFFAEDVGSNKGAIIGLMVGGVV
Method: (§3) ELISA was used for measuring binding of antibody 6G and variants to nonbiotinylated Aβ peptides. NUNC maxisorp plates were coated with 2.5 ug/ml of Aβ peptides in PBS pH 7.4 for more than 1 hour at 4° C. Plates were blocked with 1% BSA in PBS buffer pH 7.4. Primary antibody (from cell supernatants, serum containing anti-Aβ antibody, or purified full antibody or Fabs at desired dilution) was incubated with the immobilized Aβ peptides for 1 h at room temperature. After washing, the plates were incubated with secondary antibody, a HRP conjugated goat anti-human kappa chain antibody (MP Biomedicals, 55233) at 1:5000 dilution. After washing, bound secondary antibody was measured by adding TMB substrate (KPL, 50-76-02, 50-65-02). The HRP reaction was stopped by adding 1M phosphoric acid and absorbance at 450 nm was measured.
(§4) All amino acid substitutions of the variants shown in Table 3 are described relative to the sequence of 6G. Binding was determined by ELISA described above with nonbiotinylated Aβ₁₋₄₀ or Aβ₁₋₄₂ immobilized on the surface of an ELISA plate.

Aβ1-42 = biological target: T8, Aβ1-42; test: ELISA, nonbiotinylated peptide on plate
T8 construct: also called 1-42 (WT); Aβ peptide 1-42
T8 sequence (peptide, as listed by the source): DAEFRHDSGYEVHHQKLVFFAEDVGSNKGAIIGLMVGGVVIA
Method: as §3, §4

binding result [1]: no binding (tested: 10 ug/ml) | binding result [2]: no binding (tested: 10 ug/ml) | binding result [3]: no binding (tested: 10 ug/ml) | binding result [4]: no binding (tested: 10 ug/ml) | binding result [5]: no binding (tested: 10 ug/ml) | binding result (28 KGAIIGLMVGGVVIAG): no binding (tested: 10 ug/ml)
B1: antibody 6G (antibody, V domains shown)
VH: QVQLVQSGAEVKKPGASVKVSCKASGYTFTTYAIHWVRQAPGQGLEWMGFTSPYSGVSNYNQKFKGRVTMTRDTSTSTVYMELSSLRSEDTAVYYCARFDNYDRGYVRDYWGQGTLVTVSS
VL: DIVMTQSPDSLAVSLGERATINCRASESVDNDRISFLNWYQQKPGQPPKLLIYAATKQGTGVPDRFSGSGSGTDFTLTISSLQAEDVAVYYCQQSKEFPWSFGGGTKVEIKR
notes: Full antibody; human IgG2a constant region with A330P331 to S330S331, human kappa; also called 6G monoclonal antibody; 6G full antibody

A450 ELISA (Aβ1-40): 0.21 A450
B2: 6G heavy chain mutant variant 8H (N101H) (antibody, V domains shown)
VH: QVQLVQSGAEVKKPGASVKVSCKASGYTFTTYAIHWVRQAPGQGLEWMGFTSPYSGVSNYNQKFKGRVTMTRDTSTSTVYMELSSLRSEDTAVYYCARFDHYDRGYVRDYWGQGTLVTVS
VL: B1 VL

A450 ELISA (Aβ1-42): 0.14 A450
B3: 6G light chain mutant variant 5B (Q94G) (antibody, V domains shown)
VH: B2 VH with H101N
VL: B1 VL with Q94G

A450 ELISA (Aβ1-42): 0.31 A450
B4: 6G heavy chain mutant variant 7D (N101C) (antibody, V domains shown)
VH: B2 VH with H101C
VL: B1 VL

A450 ELISA (Aβ1-42): 0.2 A450
B5: 6G light chain mutant variant 6E (E97P) (antibody, V domains shown)
VH: B2 VH with H101N
VL: B1 VL with E97P

A450 ELISA (Aβ1-42): 0.18 A450
B6: 6G light chain mutant variant 7E (Q94R) (antibody, V domains shown)
VH: B2 VH with H101N
VL: B1 VL with Q94R

A450 ELISA (Aβ1-42): 0.19 A450
B7: 6G light chain mutant variant 7F (Q94K) (antibody, V domains shown)
VH: B2 VH with H101N
VL: B1 VL with Q94K

A450 ELISA (Aβ1-42): 0.12 A450
B8: 6G light chain mutant variant 10E (S95L) (antibody, V domains shown)
VH: B2 VH with H101N
VL: B1 VL with S95L
